B1: r4_43_TrROS_Hall (parent)
chain: DLVTIKVPLENLEEIKKAAEKAGFKIVSISYDKENKEVTIVIEKKK

Variants of: B1
Test: folding stability dG (cDNA display proteolysis); higher = more stable
Settings: PBS, room temperature

Variant	folding stability dG [kcal/mol]
DLVTIKVPLENLEEIKKAAEKAGFKQVSISYDKENKEVTIVIEKKK [I26Q]	2.02
DLVTIKVPLENLEEIKKAAEKAGFKTVSISYDKENKEVTIVIEKKK [I26T]	2.76
DLVTIKVPLENLEEIKKAAEKAGFKAVSISYDKENKEVTIVIEKKK [I26A]	2.13
DLVTIKVPLENLEEIKKAAEKAGFKGVSISYDKENKEVTIVIEKKK [I26G]	0.98
DLVTIKVPLENLEEIKKAAEKAGFKWVSISYDKENKEVTIVIEKKK [I26W]	3.12
DLVTIKVPLENLEEIKKAAEKAGFKSVSISYDKENKEVTIVIEKKK [I26S]	1.81
DLVTIKVPLENLEEIKKAAEKAGFKHVSISYDKENKEVTIVIEKKK [I26H]	1.53
DLVTIKVPLENLEEIKKAAEKAGFKLVSISYDKENKEVTIVIEKKK [I26L]	3.59
DLVTIKVPLENLEEIKKAAEKAGFKMVSISYDKENKEVTIVIEKKK [I26M]	3.31
DLVTIKVPLENLEEIKKAAEKAGFKEVSISYDKENKEVTIVIEKKK [I26E]	1.75
DLVTIKVPLENLEEIKKAAEKAGFKPVSISYDKENKEVTIVIEKKK [I26P]	1.96
DLVTIKVPLENLEEIKKAAEKAGFKVVSISYDKENKEVTIVIEKKK [I26V]	3.41
DLVTIKVPLENLEEIKKAAEKAGFKDVSISYDKENKEVTIVIEKKK [I26D]	1.25
DLVTIKVPLENLEEIKKAAEKAGFKRVSISYDKENKEVTIVIEKKK [I26R]	1.21
DLVTIKVPLENLEEIKKAAEKAGFKNVSISYDKENKEVTIVIEKKK [I26N]	1.35
DLVTIKVPLENLEEIKKAAEKAGFKFVSISYDKENKEVTIVIEKKK [I26F]	3.31
DLVTIKVPLENLEEIKKAAEKAGFKYVSISYDKENKEVTIVIEKKK [I26Y]	2.52
DLVTIKVPLENLEEIKKAAEKAGFKKVSISYDKENKEVTIVIEKKK [I26K]	1.31
DLVTIKVPLENLEEIKKAAEKAGFKCVSISYDKENKEVTIVIEKKK [I26C]	3
DLVTIKVPLENLEEIKKAAEKAGFKIASISYDKENKEVTIVIEKKK [V27A]	3.48
DLVTIKVPLENLEEIKKAAEKAGFKIWSISYDKENKEVTIVIEKKK [V27W]	4.34
DLVTIKVPLENLEEIKKAAEKAGFKIYSISYDKENKEVTIVIEKKK [V27Y]	4.35
DLVTIKVPLENLEEIKKAAEKAGFKIFSISYDKENKEVTIVIEKKK [V27F]	3.87

Variant	folding stability dG [kcal/mol]
DLVTIKVPLENLEEIKKAAEKAGFKISSISYDKENKEVTIVIEKKK [V27S]	3.35
DLVTIKVPLENLEEIKKAAEKAGFKICSISYDKENKEVTIVIEKKK [V27C]	3.64
DLVTIKVPLENLEEIKKAAEKAGFKIESISYDKENKEVTIVIEKKK [V27E]	2.88
DLVTIKVPLENLEEIKKAAEKAGFKIHSISYDKENKEVTIVIEKKK [V27H]	3.96
DLVTIKVPLENLEEIKKAAEKAGFKIPSISYDKENKEVTIVIEKKK [V27P]	1.89
DLVTIKVPLENLEEIKKAAEKAGFKINSISYDKENKEVTIVIEKKK [V27N]	3.24
DLVTIKVPLENLEEIKKAAEKAGFKIKSISYDKENKEVTIVIEKKK [V27K]	3.96
DLVTIKVPLENLEEIKKAAEKAGFKITSISYDKENKEVTIVIEKKK [V27T]	3.77
DLVTIKVPLENLEEIKKAAEKAGFKIRSISYDKENKEVTIVIEKKK [V27R]	3.96
DLVTIKVPLENLEEIKKAAEKAGFKILSISYDKENKEVTIVIEKKK [V27L]	3.51
DLVTIKVPLENLEEIKKAAEKAGFKIMSISYDKENKEVTIVIEKKK [V27M]	3.99
DLVTIKVPLENLEEIKKAAEKAGFKIGSISYDKENKEVTIVIEKKK [V27G]	2.59
DLVTIKVPLENLEEIKKAAEKAGFKIQSISYDKENKEVTIVIEKKK [V27Q]	3.48
DLVTIKVPLENLEEIKKAAEKAGFKIDSISYDKENKEVTIVIEKKK [V27D]	2.75
DLVTIKVPLENLEEIKKAAEKAGFKIISISYDKENKEVTIVIEKKK [V27I]	3.57
DLVTIKVPLENLEEIKKAAEKAGFKIVAISYDKENKEVTIVIEKKK [S28A]	3.71
DLVTIKVPLENLEEIKKAAEKAGFKIVCISYDKENKEVTIVIEKKK [S28C]	3.69
DLVTIKVPLENLEEIKKAAEKAGFKIVDISYDKENKEVTIVIEKKK [S28D]	3.02
DLVTIKVPLENLEEIKKAAEKAGFQIVSISYDKENKEVTIVIEKKK [K25Q]	3.29
DLVTIKVPLENLEEIKKAAEKAGFTIVSISYDKENKEVTIVIEKKK [K25T]	3.58
DLVTIKVPLENLEEIKKAAEKAGFNIVSISYDKENKEVTIVIEKKK [K25N]	3.34
DLVTIKVPLENLEEIKKAAEKAGFWIVSISYDKENKEVTIVIEKKK [K25W]	3.57
DLVTIKVPLENLEEIKKAAEKAGFHIVSISYDKENKEVTIVIEKKK [K25H]	3.2

Variant	folding stability dG [kcal/mol]
DLVTIKVPLENLEEIKKAAEKAGFCIVSISYDKENKEVTIVIEKKK [K25C]	3.06
DLVTIKVPLENLEEIKKAAEKAGFGIVSISYDKENKEVTIVIEKKK [K25G]	2.89
DLVTIKVPLENLEEIKKAAEKAGFIIVSISYDKENKEVTIVIEKKK [K25I]	3.56
DLVTIKVPLENLEEIKKAAEKAGFMIVSISYDKENKEVTIVIEKKK [K25M]	3.63
DLVTIKVPLENLEEIKKAAEKAGFRIVSISYDKENKEVTIVIEKKK [K25R]	4.04
DLVTIKVPLENLEEIKKAAEKAGFEIVSISYDKENKEVTIVIEKKK [K25E]	3.04
DLVTIKVPLENLEEIKKAAEKAGFAIVSISYDKENKEVTIVIEKKK [K25A]	3.12
DLVTIKVPLENLEEIKKAAEKAGFPIVSISYDKENKEVTIVIEKKK [K25P]	2.05
DLVTIKVPLENLEEIKKAAEKAGFYIVSISYDKENKEVTIVIEKKK [K25Y]	3.88
DLVTIKVPLENLEEIKKAAEKAGFLIVSISYDKENKEVTIVIEKKK [K25L]	3.05
DLVTIKVPLENLEEIKKAAEKAGFVIVSISYDKENKEVTIVIEKKK [K25V]	3.08
DLVTIKVPLENLEEIKKAAEKAGFDIVSISYDKENKEVTIVIEKKK [K25D]	2.73
DLVTIKVPLENLEEIKKAAEKAGFSIVSISYDKENKEVTIVIEKKK [K25S]	3.58
DLVTIKVPLENLEEIKKAAEKAGFFIVSISYDKENKEVTIVIEKKK [K25F]	3.9
DLVTIKVPLENLEEIKKAAEKYGFKIVSISYDKENKEVTIVIEKKK [A22Y]	3.95
DLVTIKVPLENLEEIKKAAEKPGFKIVSISYDKENKEVTIVIEKKK [A22P]	2.38
DLVTIKVPLENLEEIKKAAEKHGFKIVSISYDKENKEVTIVIEKKK [A22H]	3.64
DLVTIKVPLENLEEIKKAAEKRGFKIVSISYDKENKEVTIVIEKKK [A22R]	3.68
DLVTIKVPLENLEEIKKAAEKSGFKIVSISYDKENKEVTIVIEKKK [A22S]	3.56
DLVTIKVPLENLEEIKKAAEKGGFKIVSISYDKENKEVTIVIEKKK [A22G]	3.52
DLVTIKVPLENLEEIKKAAEKQGFKIVSISYDKENKEVTIVIEKKK [A22Q]	3.62
DLVTIKVPLENLEEIKKAAEKWGFKIVSISYDKENKEVTIVIEKKK [A22W]	4.33
DLVTIKVPLENLEEIKKAAEKTGFKIVSISYDKENKEVTIVIEKKK [A22T]	3.33

Variant	folding stability dG [kcal/mol]
DLVTIKVPLENLEEIKKAAEKIGFKIVSISYDKENKEVTIVIEKKK [A22I]	3.67
DLVTIKVPLENLEEIKKAAEKKGFKIVSISYDKENKEVTIVIEKKK [A22K]	3.58
DLVTIKVPLENLEEIKKAAEKVGFKIVSISYDKENKEVTIVIEKKK [A22V]	3.75
DLVTIKVPLENLEEIKKAAEKNGFKIVSISYDKENKEVTIVIEKKK [A22N]	3.54
DLVTIKVPLENLEEIKKAAEKMGFKIVSISYDKENKEVTIVIEKKK [A22M]	3.68
DLVTIKVPLENLEEIKKAAEKLGFKIVSISYDKENKEVTIVIEKKK [A22L]	3.66
DLVTIKVPLENLEEIKKAAEKAQFKIVSISYDKENKEVTIVIEKKK [G23Q]	3.51
DLVTIKVPLENLEEIKKAAEKALFKIVSISYDKENKEVTIVIEKKK [G23L]	3.52
DLVTIKVPLENLEEIKKAAEKANFKIVSISYDKENKEVTIVIEKKK [G23N]	3.44
DLVTIKVPLENLEEIKKAAEKAHFKIVSISYDKENKEVTIVIEKKK [G23H]	3.79
DLVTIKVPLENLEEIKKAAEKARFKIVSISYDKENKEVTIVIEKKK [G23R]	3.52
DLVTIKVPLENLEEIKKAAEKAYFKIVSISYDKENKEVTIVIEKKK [G23Y]	3.44
DLVTIKVPLENLEEIKKAAEKATFKIVSISYDKENKEVTIVIEKKK [G23T]	3.23
DLVTIKVPLENLEEIKKAAEKAVFKIVSISYDKENKEVTIVIEKKK [G23V]	2.78
DLVTIKVPLENLEEIKKAAEKADFKIVSISYDKENKEVTIVIEKKK [G23D]	2.75
DLVTIKVPLENLEEIKKAAEKAWFKIVSISYDKENKEVTIVIEKKK [G23W]	3.67
DLVTIKVPLENLEEIKKAAEKAIFKIVSISYDKENKEVTIVIEKKK [G23I]	2.98
DLVTIKVPLENLEEIKKAAEKAKFKIVSISYDKENKEVTIVIEKKK [G23K]	3.73
DLVTIKVPLENLEEIKKAAEKACFKIVSISYDKENKEVTIVIEKKK [G23C]	3.84
DLVTIKVPLENLEEIKKAAEKASFKIVSISYDKENKEVTIVIEKKK [G23S]	3.28
DLVTIKVPLENLEEIKKAAEKAEFKIVSISYDKENKEVTIVIEKKK [G23E]	3.18
DLVTIKVPLENLEEIKKAAEKAPFKIVSISYDKENKEVTIVIEKKK [G23P]	2.92
DLVTIKVPLENLEEIKKAAEKAFFKIVSISYDKENKEVTIVIEKKK [G23F]	3.61

Variant	folding stability dG [kcal/mol]
DLVTIKVPLENLEEIKKAAEKAAFKIVSISYDKENKEVTIVIEKKK [G23A]	3.54
DLVTIKVPLENLEEIKKAAEKAMFKIVSISYDKENKEVTIVIEKKK [G23M]	3.46
DLVTIKVPLENLEEIKKAAEKAGAKIVSISYDKENKEVTIVIEKKK [F24A]	3.19
DLVTIKVPLENLEEIKKAAEKAGKKIVSISYDKENKEVTIVIEKKK [F24K]	2.51
DLVTIKVPLENLEEIKKAAEKAGYKIVSISYDKENKEVTIVIEKKK [F24Y]	3.53
DLVTIKVPLENLEEIKKAAEKAGGKIVSISYDKENKEVTIVIEKKK [F24G]	2.74
DLVTIKVPLENLEEIKKAAEKAGPKIVSISYDKENKEVTIVIEKKK [F24P]	1.47
DLVTIKVPLENLEEIKKAAEKAGQKIVSISYDKENKEVTIVIEKKK [F24Q]	2.5
DLVTIKVPLENLEEIKKAAEKAGRKIVSISYDKENKEVTIVIEKKK [F24R]	2.77
DLVTIKVPLENLEEIKKAAEKAGMKIVSISYDKENKEVTIVIEKKK [F24M]	2.55
DLVTIKVPLENLEEIKKAAEKAGWKIVSISYDKENKEVTIVIEKKK [F24W]	3.68
DLVTIKVPLENLEEIKKAAEKAGLKIVSISYDKENKEVTIVIEKKK [F24L]	2.8
DLVTIKVPLENLEEIKKAAEKAGIKIVSISYDKENKEVTIVIEKKK [F24I]	2.52
DLVTIKVPLENLEEIKKAAEKAGVKIVSISYDKENKEVTIVIEKKK [F24V]	2.74
DLVTIKVPLENLEEIKKAAEKAGTKIVSISYDKENKEVTIVIEKKK [F24T]	2.88
DLVTIKVPLENLEEIKKAAEKAGDKIVSISYDKENKEVTIVIEKKK [F24D]	2.47
DLVTIKVPLENLEEIKKAAEKAGNKIVSISYDKENKEVTIVIEKKK [F24N]	2.56
DLVTIKVPLENLEEIKKAAEKAGHKIVSISYDKENKEVTIVIEKKK [F24H]	2.73
DLVTIKVPLENLEEIKKAAEKAGEKIVSISYDKENKEVTIVIEKKK [F24E]	2.85
DLVTIKVPLENLEEIKKAAEKAGSKIVSISYDKENKEVTIVIEKKK [F24S]	2.69
